The values that follow come from patent US20070212347A1 (published 2007).

For assay [1], the target named is GST-p53 construct (Res. 73-390) [GST: P08515]. As to the kind of experiment: in vitro binding, ^35S-T-antigen probe on bead-immobilized GST-p53.
The target in assay [2] is T1, GST-Ig^b fusion protein (polycystin-1 Ig-like domains VI-X, amino acids 1205-1625, fused to GST) (human, UniProt P98161 1205-1625).
T1 construct: used soluble in the MDCK adhesion assays; not shown: glutathione S-transferase carrier encoded by the pGEX vector (Pharmacia), N-terminal fusion partner; linker residues not
T1 sequence: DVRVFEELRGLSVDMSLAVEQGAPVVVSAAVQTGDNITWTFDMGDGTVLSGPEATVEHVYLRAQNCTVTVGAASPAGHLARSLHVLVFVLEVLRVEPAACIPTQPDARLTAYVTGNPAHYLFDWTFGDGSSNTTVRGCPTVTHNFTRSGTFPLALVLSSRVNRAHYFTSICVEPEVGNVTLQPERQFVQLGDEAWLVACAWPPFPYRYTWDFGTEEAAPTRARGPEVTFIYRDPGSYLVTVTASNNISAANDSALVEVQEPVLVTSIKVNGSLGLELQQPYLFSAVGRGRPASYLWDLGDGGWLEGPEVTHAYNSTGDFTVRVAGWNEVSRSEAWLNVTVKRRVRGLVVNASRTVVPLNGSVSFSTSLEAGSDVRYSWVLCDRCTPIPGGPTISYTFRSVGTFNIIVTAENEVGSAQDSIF
As to the kind of experiment: in vitro binding, ^35S in vitro translated probe on bead-immobilized GST fusion.

The target in assay [3] is Ig^b and Ig^c, as partners of Ig^b in the 'Ig^b-Ig^b, Ig^b-Ig^c combinations'. As to the kind of experiment: in vitro binding, ^35S in vitro translated probe on bead-immobilized GST fusion, PhosphorImager.
Assay [4] has as its target T2, ^35S-PKD2 probe (C-terminal region of polycystin-2, Res. 657-968) (UniProt Q13563 657-968, ^35S-labeled (in vitro translation)).
T2 construct: range 657-968; In vitro translated in the same manner as the Ig probes; also called polycystin-2 probe; PKD2 gene product
T2 sequence (looked up): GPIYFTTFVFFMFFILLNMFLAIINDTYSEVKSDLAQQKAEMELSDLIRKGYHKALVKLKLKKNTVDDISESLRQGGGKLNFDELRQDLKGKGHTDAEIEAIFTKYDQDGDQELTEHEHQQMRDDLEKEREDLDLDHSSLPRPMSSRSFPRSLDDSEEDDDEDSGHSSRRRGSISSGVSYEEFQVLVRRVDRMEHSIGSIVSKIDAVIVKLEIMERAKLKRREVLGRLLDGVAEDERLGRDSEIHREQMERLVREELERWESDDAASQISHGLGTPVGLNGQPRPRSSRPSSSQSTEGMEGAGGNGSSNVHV
As to the kind of experiment: in vitro binding, autoradiogram (FIG. 12C).

Chain of GST-p53 construct (Res. 73-390) [GST: P08515] (P08515 whole entry, the tested form may be a part): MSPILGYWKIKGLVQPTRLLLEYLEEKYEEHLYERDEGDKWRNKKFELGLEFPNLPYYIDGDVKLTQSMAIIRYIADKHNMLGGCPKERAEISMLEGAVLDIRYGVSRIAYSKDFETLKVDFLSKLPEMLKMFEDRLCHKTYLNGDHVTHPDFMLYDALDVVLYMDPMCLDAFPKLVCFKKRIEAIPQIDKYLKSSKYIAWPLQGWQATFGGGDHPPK

For the molecule “^35S-T-antigen probe (SV40 large T-antigen, res. 87-708) (from UniProt P03070 87-708)”, the bound fraction (percentage of input probe) in assay [1] stood at 45%.

B1: ^35S-Ig^b in vitro translated probe (polycystin-1 Ig-like domains VI-X) (other)
chain: T1 sequence
modifications: ^35S-labeled (in vitro translation)
notes: Translated in reticulocyte lysate without the GST portion, from an AUG in a Kozak context placed upstream of the insert
In the case of B1, the binding result in assay [2] is on record as “binds”. In addition, the bound fraction (percentage of input probe) in assay [3] fell in the range of 25 to 45%.

B2: MBP-PKD1 fusion protein (C-terminal region of polycystin-1, Res. 4077-4302, fused to MBP) (other, not shown: large carriers)
chain: ESWHLSPLLCVGLWALRLWGALRLGAVILRWRYHALRGELYRPAWEPQDYEMVELFLRRLRLWMGLSKVKEFRHKVRFEGMEPLPSRSSRGSKVSPDVPPPSAGSDASHPSTSSSQLDGLSVSLGRLGTRCEPEPSRLQAVFEALLTQFDRLNQATEDVYQLEQQLHSLQGRRSSRAPAGSSRGPSPGLRPALPSRLARASRGVDLATGPSRTPLRAKNKVHPSST
notes: Immobilized on amylose resin; also called polycystin-1 c-terminal fusion protein
With B2, in assay [4], the binding result is listed as “binds”.
